Source: patent US10919943B2, “Mutant proteins enabling agrochemical control of plant gene expression” (The Regents of the University of California, priority 2016, dated 2021)

The molecules below were run on HAB1 (assay: Yeast two hybrid of pBD-PYR1 site saturation mutants with pACT-HAB1 on 10 μM ABA, β-galactosidase staining). Conditions: S. cerevisiae Y190, 10 μM ABA; dead = lack of visible staining in comparison to wild type control.
Assay type: cell-based, Arabidopsis
Parameters: key: x: Mutations in PYR1 that disrupt ABA-induced binding to PYR1 to HAB1
Method in brief: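 S. cerevisiae Y190 co-expressing GAL4-DNA-binding-domain–PYR1 mutants and GAL4-activation-domain–HAB1 were spotted on SD (-Leu, -Trp) agar with 10 μM (+)-ABA for 2 days at 30° C. Colonies were chloroform-lysed and stained for β-galactosidase. Mutants lacking visible staining relative to wild type were scored as non-binding.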

| Mutations in PYR1 that disrupt ABA-induced binding to PYR1 to HAB1 | Molecule |
| --- | --- |
| x | D155I: PYR1 mutant (protein, UniProt O49686 1-191, looked up, variant D155I) Abscisic acid receptor PYR1: MPSELTPEERSELKNSIAEFHTYQLDPGSCSSLHAQRIHAPPELVWSIVRRFDKPQTYKHFIKSCSVEQNFEMRVGCTRDVIVISGLPANTSTERLDILDDERRVTGFSIIGGEHRLTNYKSVTTVHRFEKENRIWTVVLESYVVDMPEGNSEDITRMFADTVVKLNLQKLATVAEAMARNSGDGSGSQVT |
| x | T156I: PYR1 mutant (protein, UniProt O49686 1-191, looked up, variant T156I) Abscisic acid receptor PYR1: MPSELTPEERSELKNSIAEFHTYQLDPGSCSSLHAQRIHAPPELVWSIVRRFDKPQTYKHFIKSCSVEQNFEMRVGCTRDVIVISGLPANTSTERLDILDDERRVTGFSIIGGEHRLTNYKSVTTVHRFEKENRIWTVVLESYVVDMPEGNSEDDIRMFADTVVKLNLQKLATVAEAMARNSGDGSGSQVT |
| x | T156Q: PYR1 mutant (protein, UniProt O49686 1-191, looked up, variant T156Q) Abscisic acid receptor PYR1: MPSELTPEERSELKNSIAEFHTYQLDPGSCSSLHAQRIHAPPELVWSIVRRFDKPQTYKHFIKSCSVEQNFEMRVGCTRDVIVISGLPANTSTERLDILDDERRVTGFSIIGGEHRLTNYKSVTTVHRFEKENRIWTVVLESYVVDMPEGNSEDDQRMFADTVVKLNLQKLATVAEAMARNSGDGSGSQVT |
| x | M158P: PYR1 mutant (protein, UniProt O49686 1-191, looked up, variant M158P) Abscisic acid receptor PYR1: MPSELTPEERSELKNSIAEFHTYQLDPGSCSSLHAQRIHAPPELVWSIVRRFDKPQTYKHFIKSCSVEQNFEMRVGCTRDVIVISGLPANTSTERLDILDDERRVTGFSIIGGEHRLTNYKSVTTVHRFEKENRIWTVVLESYVVDMPEGNSEDDTRPFADTVVKLNLQKLATVAEAMARNSGDGSGSQVT |
| x | T156D: PYR1 mutant (protein, UniProt O49686 1-191, looked up, variant T156D) Abscisic acid receptor PYR1: MPSELTPEERSELKNSIAEFHTYQLDPGSCSSLHAQRIHAPPELVWSIVRRFDKPQTYKHFIKSCSVEQNFEMRVGCTRDVIVISGLPANTSTERLDILDDERRVTGFSIIGGEHRLTNYKSVTTVHRFEKENRIWTVVLESYVVDMPEGNSEDDDRMFADTVVKLNLQKLATVAEAMARNSGDGSGSQVT |
| x | F159Q: PYR1 mutant (protein, UniProt O49686 1-191, looked up, variant F159Q) Abscisic acid receptor PYR1: MPSELTPEERSELKNSIAEFHTYQLDPGSCSSLHAQRIHAPPELVWSIVRRFDKPQTYKHFIKSCSVEQNFEMRVGCTRDVIVISGLPANTSTERLDILDDERRVTGFSIIGGEHRLTNYKSVTTVHRFEKENRIWTVVLESYVVDMPEGNSEDDTRMQADTVVKLNLQKLATVAEAMARNSGDGSGSQVT |
| x | T156W: PYR1 mutant (protein, UniProt O49686 1-191, looked up, variant T156W) Abscisic acid receptor PYR1: MPSELTPEERSELKNSIAEFHTYQLDPGSCSSLHAQRIHAPPELVWSIVRRFDKPQTYKHFIKSCSVEQNFEMRVGCTRDVIVISGLPANTSTERLDILDDERRVTGFSIIGGEHRLTNYKSVTTVHRFEKENRIWTVVLESYVVDMPEGNSEDDWRMFADTVVKLNLQKLATVAEAMARNSGDGSGSQVT |
| x | T156R: PYR1 mutant (protein, UniProt O49686 1-191, looked up, variant T156R) Abscisic acid receptor PYR1: MPSELTPEERSELKNSIAEFHTYQLDPGSCSSLHAQRIHAPPELVWSIVRRFDKPQTYKHFIKSCSVEQNFEMRVGCTRDVIVISGLPANTSTERLDILDDERRVTGFSIIGGEHRLTNYKSVTTVHRFEKENRIWTVVLESYVVDMPEGNSEDDRRMFADTVVKLNLQKLATVAEAMARNSGDGSGSQVT |
| x | T156E: PYR1 mutant (protein, UniProt O49686 1-191, looked up, variant T156E) Abscisic acid receptor PYR1: MPSELTPEERSELKNSIAEFHTYQLDPGSCSSLHAQRIHAPPELVWSIVRRFDKPQTYKHFIKSCSVEQNFEMRVGCTRDVIVISGLPANTSTERLDILDDERRVTGFSIIGGEHRLTNYKSVTTVHRFEKENRIWTVVLESYVVDMPEGNSEDDERMFADTVVKLNLQKLATVAEAMARNSGDGSGSQVT |
| x | T156Y: PYR1 mutant (protein, UniProt O49686 1-191, looked up, variant T156Y) Abscisic acid receptor PYR1: MPSELTPEERSELKNSIAEFHTYQLDPGSCSSLHAQRIHAPPELVWSIVRRFDKPQTYKHFIKSCSVEQNFEMRVGCTRDVIVISGLPANTSTERLDILDDERRVTGFSIIGGEHRLTNYKSVTTVHRFEKENRIWTVVLESYVVDMPEGNSEDDYRMFADTVVKLNLQKLATVAEAMARNSGDGSGSQVT |
| x | F159N: PYR1 mutant (protein, UniProt O49686 1-191, looked up, variant F159N) Abscisic acid receptor PYR1: MPSELTPEERSELKNSIAEFHTYQLDPGSCSSLHAQRIHAPPELVWSIVRRFDKPQTYKHFIKSCSVEQNFEMRVGCTRDVIVISGLPANTSTERLDILDDERRVTGFSIIGGEHRLTNYKSVTTVHRFEKENRIWTVVLESYVVDMPEGNSEDDTRMNADTVVKLNLQKLATVAEAMARNSGDGSGSQVT |
| x | T156K: PYR1 mutant (protein, UniProt O49686 1-191, looked up, variant T156K) Abscisic acid receptor PYR1: MPSELTPEERSELKNSIAEFHTYQLDPGSCSSLHAQRIHAPPELVWSIVRRFDKPQTYKHFIKSCSVEQNFEMRVGCTRDVIVISGLPANTSTERLDILDDERRVTGFSIIGGEHRLTNYKSVTTVHRFEKENRIWTVVLESYVVDMPEGNSEDDKRMFADTVVKLNLQKLATVAEAMARNSGDGSGSQVT |
| x | T156N: PYR1 mutant (protein, UniProt O49686 1-191, looked up, variant T156N) Abscisic acid receptor PYR1: MPSELTPEERSELKNSIAEFHTYQLDPGSCSSLHAQRIHAPPELVWSIVRRFDKPQTYKHFIKSCSVEQNFEMRVGCTRDVIVISGLPANTSTERLDILDDERRVTGFSIIGGEHRLTNYKSVTTVHRFEKENRIWTVVLESYVVDMPEGNSEDDNRMFADTVVKLNLQKLATVAEAMARNSGDGSGSQVT |
| x | T156M: PYR1 mutant (protein, UniProt O49686 1-191, looked up, variant T156M) Abscisic acid receptor PYR1: MPSELTPEERSELKNSIAEFHTYQLDPGSCSSLHAQRIHAPPELVWSIVRRFDKPQTYKHFIKSCSVEQNFEMRVGCTRDVIVISGLPANTSTERLDILDDERRVTGFSIIGGEHRLTNYKSVTTVHRFEKENRIWTVVLESYVVDMPEGNSEDDMRMFADTVVKLNLQKLATVAEAMARNSGDGSGSQVT |
| x | T156F: PYR1 mutant (protein, UniProt O49686 1-191, looked up, variant T156F) Abscisic acid receptor PYR1: MPSELTPEERSELKNSIAEFHTYQLDPGSCSSLHAQRIHAPPELVWSIVRRFDKPQTYKHFIKSCSVEQNFEMRVGCTRDVIVISGLPANTSTERLDILDDERRVTGFSIIGGEHRLTNYKSVTTVHRFEKENRIWTVVLESYVVDMPEGNSEDDFRMFADTVVKLNLQKLATVAEAMARNSGDGSGSQVT |
| x | F159P: PYR1 mutant (protein, UniProt O49686 1-191, looked up, variant F159P) Abscisic acid receptor PYR1: MPSELTPEERSELKNSIAEFHTYQLDPGSCSSLHAQRIHAPPELVWSIVRRFDKPQTYKHFIKSCSVEQNFEMRVGCTRDVIVISGLPANTSTERLDILDDERRVTGFSIIGGEHRLTNYKSVTTVHRFEKENRIWTVVLESYVVDMPEGNSEDDTRMPADTVVKLNLQKLATVAEAMARNSGDGSGSQVT |
| x | T156H: PYR1 mutant (protein, UniProt O49686 1-191, looked up, variant T156H) Abscisic acid receptor PYR1: MPSELTPEERSELKNSIAEFHTYQLDPGSCSSLHAQRIHAPPELVWSIVRRFDKPQTYKHFIKSCSVEQNFEMRVGCTRDVIVISGLPANTSTERLDILDDERRVTGFSIIGGEHRLTNYKSVTTVHRFEKENRIWTVVLESYVVDMPEGNSEDDHRMFADTVVKLNLQKLATVAEAMARNSGDGSGSQVT |
| x | T156L: PYR1 mutant (protein, UniProt O49686 1-191, looked up, variant T156L) Abscisic acid receptor PYR1: MPSELTPEERSELKNSIAEFHTYQLDPGSCSSLHAQRIHAPPELVWSIVRRFDKPQTYKHFIKSCSVEQNFEMRVGCTRDVIVISGLPANTSTERLDILDDERRVTGFSIIGGEHRLTNYKSVTTVHRFEKENRIWTVVLESYVVDMPEGNSEDDLRMFADTVVKLNLQKLATVAEAMARNSGDGSGSQVT |
| x | T156G: PYR1 mutant (protein, UniProt O49686 1-191, looked up, variant T156G) Abscisic acid receptor PYR1: MPSELTPEERSELKNSIAEFHTYQLDPGSCSSLHAQRIHAPPELVWSIVRRFDKPQTYKHFIKSCSVEQNFEMRVGCTRDVIVISGLPANTSTERLDILDDERRVTGFSIIGGEHRLTNYKSVTTVHRFEKENRIWTVVLESYVVDMPEGNSEDDGRMFADTVVKLNLQKLATVAEAMARNSGDGSGSQVT |
| x | T156P: PYR1 mutant (protein, listed as Arabidopsis thaliana) MPSELTPEERSELKNSIAEFHTYQLDPGSCSSLHAQRIHAPPELVWSIVRRFDKPQTYKHFIKSCSVEQNFEMRVGCTRDVIVISGLPANTSTERLDILDDERRVTGFSIIGGEHRLTNYKSVTTVHRFEKENRIWTVVLESYVVDMPEGNSEDDPRMFADTVVKLNLQKLATVAEAMARNSGDGSGSQVT |
| x | D155K: PYR1 mutant (protein, UniProt O49686 1-191, looked up, variant D155K) Abscisic acid receptor PYR1: MPSELTPEERSELKNSIAEFHTYQLDPGSCSSLHAQRIHAPPELVWSIVRRFDKPQTYKHFIKSCSVEQNFEMRVGCTRDVIVISGLPANTSTERLDILDDERRVTGFSIIGGEHRLTNYKSVTTVHRFEKENRIWTVVLESYVVDMPEGNSEDKTRMFADTVVKLNLQKLATVAEAMARNSGDGSGSQVT |
